# Test results as given in patent publication US20260167731A1 (DOMAIN THERAPEUTICS, published 2026).
# Biological target: human CCR8 (human, UniProt P51685 1-355)
# Assay: cell-based or functional assay
"ADCC % Max lysis, HUT78 targets, NK cells Donor 3","ADCC % Max lysis, HUT78 targets, NK cells Donor 4","ADCC EC50, HUT78 targets, NK cells Donor 3","ADCC EC50, HUT78 targets, NK cells Donor 4",Binder
14%,15%,793 pM,1520 pM,"chimeric anti-CCR8 mAb 2-17 (antibody, human IgG1, kappa) heavy: not shown light: DVVMTQTPLSLPVSLGDQASISCRCTQSLLHTNGDTYLHWYLQKPGQSPKLLIYKVSNRFSGVPDRFSGSGSGTDFTLKISRVEAEDLGVYFCSQSTHVPYTFGGGTKLEIKRTVAAPSVFIFPPSDEQLKSGTASVVCLLNNFYPREAKVQWKVDNALQSGNSQESVTEQDSKDSTYSLSSTLTLSKADYEKHKVYACEVTHQGLSSPVTKSFNRGEC"
29%,29%,195 pM,282 pM,"hypofucosylated (low fucosylated) chimeric anti-CCR8 mAb 2-19 (antibody, human IgG1, kappa, hypofucosylated Fc glycan) heavy: not shown light: DVVMTQTPLSLPVSLGDQASISCRCTQSLLHTNGDTYLHWYLQKPGQSPKLLIYKVSNRFSGVPDRFSGSGSGTDFTLKISRVEAEDLGVYFCSQSTHVPYTFGGGTKLEIKRTVAAPSVFIFPPSDEQLKSGTASVVCLLNNFYPREAKVQWKVDNALQSGNSQESVTEQDSKDSTYSLSSTLTLSKADYEKHKVYACEVTHQGLSSPVTKSFNRGEC"
